Experimental data reported in article PMC9089689 (ACS Omega, 2022).
Substitutions are numbered along the chain they refer to. Names may count otherwise.

B1: Hup-P64A protein (natural protein, Helicobacter pylori, UniProt O25506 1-94, looked up)
chain: MNKAEFIDLVKEAGKYNSKREAEEAISAFTLAVETALSKGESVELIGFGKFETAEQKGKEGKVAGSDKTYKTEDKRVPKFKPGKTLKQKVEEGK
B2: Helicobacter pylori histone-like DNA binding protein (Hup), wild type (natural protein, UniProt O25506 1-94, looked up)
chain: B1 chain with A64P

What was measured:
[1] = target: T1, Hup-WT (histone-like DNA binding protein HU) (Helicobacter pylori, UniProt O25506 1-94); experiment: Tyr fluorescence quenching
T1 sequence: B1 chain with A64P

[2] = target: the molecule itself; experiment: NMR 1H-15N HSQC
[3] = target: the molecule itself; experiment: SEC

Row | Binder | Kd [1] | intensity ratio [dimer:monomer] [2] | stoichiometry N [3]
1 | TTTTTTTTTTCGAAGAAAAAAAAAA (structured_DNA) [hp-DNA (25-base A/T-rich hairpin)] | 500 ± 50 nM |  | 
2 | B1 |  | ~1.5 | 2
3 | B2 |  |  | 2
